Like-named read-outs stand apart in the source and are kept apart here.
T1: Vps4^E233Q (S. cerevisiae, UniProt P52917 1-437, E233Q)
T1 sequence (looked up): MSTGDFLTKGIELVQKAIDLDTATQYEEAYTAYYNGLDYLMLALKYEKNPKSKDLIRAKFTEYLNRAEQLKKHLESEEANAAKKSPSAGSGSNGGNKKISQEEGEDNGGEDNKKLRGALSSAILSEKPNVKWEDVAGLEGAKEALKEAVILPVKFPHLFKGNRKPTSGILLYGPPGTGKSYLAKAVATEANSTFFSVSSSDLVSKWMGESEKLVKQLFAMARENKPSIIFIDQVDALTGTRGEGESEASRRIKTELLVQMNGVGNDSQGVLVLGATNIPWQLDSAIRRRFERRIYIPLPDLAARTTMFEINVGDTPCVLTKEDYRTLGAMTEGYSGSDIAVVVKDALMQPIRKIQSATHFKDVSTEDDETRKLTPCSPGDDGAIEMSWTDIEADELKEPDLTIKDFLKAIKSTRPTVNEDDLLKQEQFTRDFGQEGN

B1: Ist1 (natural protein, S. cerevisiae, UniProt P53843 1-298, looked up)
chain: MAPSMIPFTIKLKTCLKMCIQRLRYAQEKQQAIAKQSRRQVAQLLLTNKEQKAHYRVETLIHDDIHIELLEILELYCELLLARVQVINDISTEEQLVKEHMDDGINEAIRSLIYAILFVDEVKELSQLKDLMAWKINVEFVNGVIADHIDVPEKIIKKCSPSVPKEELVDLYLKEIAKTYDVPYSKLENSLSSSSSNISSDFSDPSGDIEDNDEEKPILALDNDDNDNADAKHPITVKKPRQNSENIKNELKIPKDIKKEVIEKKQSEKKTTKRKTKKEQENDELDELKKRFDALRRK

Experiments:
Assay in all cases: pull-down
Vps4^E233Q [1] = target: T1, Vps4^E233Q
Ist1 = target: B1
Vps4^E233Q [2] = target: T1, Vps4^E233Q; remark: listed apart in the source

binding result (Ist1)	Binder	also measured
	GST-Vps20(C) (domain or fragment, S. cerevisiae, UniProt Q04272 101-221, looked up) QFINGLKNGNEILKKLNKEFSNVDELMDDVQDQIAYQNEINETLSRSLVGTSNYEDDLDKELDALESELNPEKMNNAKVANMPSTEGLPSLPQGEQTEQKEREEFATEERSDTKEPLALLS	binding result (Vps4^E233Q [1]): binds
binds	GST-CT(Did2) (domain or fragment, S. cerevisiae, UniProt P69771 113-204, looked up) QQITMIMDKFEQQFEDLDTSVNVYEDMGVNSDAMLVDNDKVDELMSKVADENGMELKQSAKLDNVPEIKAKEVNVDDEKEDKLAQRLRALRG	
	B1	binding result (Vps4^E233Q [2]): binds
binds	GST-Did2 (natural protein, S. cerevisiae, UniProt P69771 1-204, looked up) MSRNSAAGLENTLFQLKFTSKQLQKQANKASKEEKQETNKLKRALNENEDISRIYASNAIRKKNERLQLLKLASRVDSVASRVQTAVTMRQVSASMGQVCKGMDKALQNMNLQQITMIMDKFEQQFEDLDTSVNVYEDMGVNSDAMLVDNDKVDELMSKVADENGMELKQSAKLDNVPEIKAKEVNVDDEKEDKLAQRLRALRG	

From article PMC2836958 (Molecular Biology of the Cell, 2010)
